Assays:
[1] = biological target: T1, NP220 DNA-binding domain (NP220DB) (UniProt Q14966 1240-1478); assay: EMSA
T1 sequence: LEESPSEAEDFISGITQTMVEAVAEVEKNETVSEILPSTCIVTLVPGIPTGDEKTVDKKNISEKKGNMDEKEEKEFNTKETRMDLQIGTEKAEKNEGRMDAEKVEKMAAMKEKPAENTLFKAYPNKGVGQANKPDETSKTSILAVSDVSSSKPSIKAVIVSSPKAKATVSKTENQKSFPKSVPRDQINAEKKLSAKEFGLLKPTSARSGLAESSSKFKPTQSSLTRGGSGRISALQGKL

[2] = biological target: T1, NP220 DNA-binding domain (NP220DB); assay: competition
[3] = biological target: T1, NP220 DNA-binding domain (NP220DB); assay: competition; remark: listed apart in the source

B1: Bio-DNA84 (MLV U3 LTR fragment) (dsDNA)
DNA 1: AGGATATCTGTGGTAAGCAGTTCCTGCCCCGGCTCAGGGCCAAGAACAGATGGTCCCCAGATGCGGTCCAGCCCTCAGCAGTTT
DNA 2: AAACTGCTGAGGGCTGGACCGCATCTGGGGACCATCTGTTCTTGGCCCTGAGCCGGGGCAGGAACTGCTTACCACAGATATCCT
Does B1 bind [1]?
Result: binds

B2: DNA84 (unlabeled) (dsDNA)
DNA 1: B1 DNA 1
DNA 2: B1 DNA 2
Does B2 bind [2]?
Result: binds

B3: DNA72 (NP220 sites deleted) (dsDNA)
DNA 1: AGGATATCTGTGGTAAGCAGTTCCTGCTCAGGGCCAAGAACAGATGGTATGCGGTCCAGCCCTCAGCAGTTT
DNA 2: AAACTGCTGAGGGCTGGACCGCATACCATCTGTTCTTGGCCCTGAGCAGGAACTGCTTACCACAGATATCCT
Does B3 bind [3]?
Result: no binding

Source: PMC6349045
